Measurements taken from the supplement of paper PMC9170038.

System: MS2 coat protein
Assay: apparent KD of MS2 coat protein; designed switch direction (-1 OFF switch, 1 ON switch): -1; higher = weaker reporter binding
Procedure, shortened: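 Stalled E. coli RNA polymerase transcribed designed RNA switches on Illumina chips, which were then titrated with SNAP-549-labelled MS2 coat protein, doubling from 0.7 or 1.5 nM to 3 µM. Steps lasted from 0.8–1.5 h at the lowest concentration to 10–20 min at the highest. The apparent KD is each design's median over clusters of curve-fitted normalised fluorescence.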

[1] = Eterna round: R95, input ligand: FMN 200 uM
[2] = Eterna round: R95, input ligand: microRNA oligo, concentration not stated
[3] = Eterna round: R95, input ligand: none
[4] = input ligand: microRNA oligo, concentration not stated

Sequence	apparent KD of MS2 coat protein [1]	apparent KD of MS2 coat protein [2]	apparent KD of MS2 coat protein [3]	apparent KD of MS2 coat protein (input ligand: FMN 200 uM)	apparent KD of MS2 coat protein (input ligand: none)	apparent KD of MS2 coat protein [4]
GGGAUGUCAGGAUAUCCGAAAGUCUGCCAAUACGGCAGACAGGAGAAGGGACAUGAGGAUCACCCAUGUAAAGA [Aedxear] (puzzle: Exclusion 4)	120 nM	59.4 nM	49.4 nM			
GGGAUGUGAGGAUAUCGAGGUGGAAAGCACCUAACAGAAAACGAGAAGGCACAUGAGGAUCACCCAUGUAAUAC [Ditete] (puzzle: Exclusion 4)	54.6 nM	19.5 nM	19.8 nM			
GGGCAAUUAGGAUAUACAUGAGGAUCACCCAUGUGGAAGCCCGGACAGGUAAUCCACUGUAGAAGGGAUUGCGG [Userqube] (puzzle: Exclusion 3)		13.5 nM				
GGGCCCGGAGGAUAUACAAUCCCGGGCCGAAAGGUUUGGGUACAUGAGGAUCACCCAUGUAGAAGGCCGGGCCC [-40.9, -38.2 kcal A 24%, 5b bis,0] (Eterna round: R97, puzzle: Exclusion 2)				29.1 nM	17.9 nM	
GGGCCCGGAGGAUAUACAAUGGGUUUGGGAAACCGGGCCCUACAUGAGGAUCACCCAUGUAGAAGGCCGGGCCC [-41, -38.9 kcal A 24%, 5b,0] (Eterna round: R97, puzzle: Exclusion 2)				39.9 nM	34.2 nM	
GGGCCCGGUGUGAGGAUAUGCCCGGGUAAACCCGGGUAGAAGGCACAUGAGGAUCACCCAUGUAAGCCGGGCCC [-43, -40.9 kcal, A 23%, 5cbis-0] (Eterna round: R97, puzzle: Brourd's mod of Exclusion 4)				12.8 nM	17.7 nM	
GGGCCUGGUGUAGGAUAUCGUGGGCGGUGUCGGCGAGAAGGACAUGAGGAUCACCCAUGUCCGGGCUCGGGUUCCCGGGCUUGG [second try -37.9 kcal and 14% A] (Eterna round: R96, puzzle: Exclusion NG 1)				28.5 nM	15.4 nM	13 nM
GGGCGGCGGACCGUGGCUUUUUGCUCGUCUUGUGCUUCGACAUGAGGAUCACCCAUGUGGUGGUGGUCCGUUGUGGG [Grok-var2-14 mod JAL] (puzzle: Sensor v3, turn-off variant 2)	18.2 nM	12.6 nM	14.7 nM			
GGGCGUGAAGGAUAUACAUGAGGAUCACCCAUGUGGGAGGAGAAUGGUGAGGAGGCUGGUAGAAGGUCAGGAGG [JR_Exclusion3_Sub009] (puzzle: Exclusion 3)		37.5 nM				
GGGUACAAGCUAAGAUCCUACAUGAGGAUCACCCAUGUGGUCCGGUGACGUGAGUCACCGGACUUAGCUCGUCUUGU [salish99_S_TOV1_R5_003] (Eterna round: R97, puzzle: Sensor, turn-off variant 1)				59.3 nM	61.3 nM	
GGGUGACAUGAGGAUCACCCAUGUCAGGAUAUGAUUCUGCUUGCGAAAGCGAGUAGAAUCAGAAGGGACAUCCC (Eterna round: R97, puzzle: Exclusion 1)				293 nM	65.2 nM	
GGGUGCAGGCUGAGGUCCUACAUGAGGAUCACCCAUGUGGUCCGGUGACGUGGGUCGCCGGACUUGGCUCGUCUUGU [salish99_S_TOV1_R5_012] (Eterna round: R97, puzzle: Sensor, turn-off variant 1)				39 nM	48.6 nM	
GGGUGUGCUAAGGAUAUCGGACCAUCGGGUAACUGAGAAGGUAGCACAUGAGGAUCACCCAUGUGUAACUUGAU [EX6 B.12] (Eterna round: R97, puzzle: Exclusion 6)				159 nM	16 nM	
GGUACUAACACGAAAGUGUUAGUACUAUAAGCUUGUGUUACAUGAGGAUCACCCAUGUCCUCAUAAGCUCGUCUUGU [JL-sv3-2.19 mat747 mod] (puzzle: Sensor v3, turn-off variant 2)	45.4 nM	44.2 nM	44.9 nM			
GGUACUAACACGAUAGUGUUAGUACUAUAAGCUUGUGUUACAUGAGGAUCACCCAUGUCCUCAUAAGCUCGUCUUAU [Mat - Sensor v3 - Turn-off var 2 - D77] (puzzle: Sensor v3, turn-off variant 2)	95.9 nM	50.2 nM	98.6 nM			
GGUACUAACACGAUAGUGUUAGUACUAUAAGCUUGUGUUACAUGAGGAUCACCCAUGUCCUCAUAGGCUCGUCUUAG [Mat - Sensor v3 - Turn-off var 2 - D85] (puzzle: Sensor v3, turn-off variant 2)	87.1 nM	23.1 nM	106 nM			
GGUACUCAAAGAGUACCAAUACGAACAUGAGGAUCACCCAUGUAGGAUAUGCUACUCAAAGAGUAGCAGAAGGACAUGUGCCUU [Far Half Aptamer v5] (Eterna round: R96, puzzle: Exclusion NG 3)				254 nM	29.5 nM	25.3 nM
GGUACUCAAAGAGUACCAAUACGAACAUGAGGAUCACCCAUGUAGGAUAUGCUACUCAAAGAGUAGCAGAAGGAUAUGAUGAAU [Far Half Aptamer v16] (Eterna round: R96, puzzle: Exclusion NG 3)				41.1 nM	40.2 nM	30.8 nM
GGUAGAGUGGUAGGAUAUCCGUCUGUUUCAGUCGGAGAAGGACCACAGUCACUGGGUCCUAAUAUGGGUGACCAUGUAUCUACC [pwkr exNG1 F6.11] (Eterna round: R96, puzzle: Exclusion NG 1)				1340 nM	348 nM	279 nM
GGUAGUAUGAGUAGUCCUCAUUGAAGAGAUUGGUAAGAUACAUGAGGAUCACCCAUGUUUGAACAAGCUUUUGCUCA [JR_Sv3TOV2_Sub006] (puzzle: Sensor v3, turn-off variant 2)	141 nM	53 nM	298 nM			
GGUAGUAUGAGUAGUCCUCAUUGAAGAGAUUGGUAAGAUACAUGAGGAUCACCCAUGUUUGAACAAGCUUUUGCUCU [JR_Sv3TOV2_Sub007] (puzzle: Sensor v3, turn-off variant 2)	87.1 nM	25.9 nM	82.8 nM			
GGUAUAUGAGGAUAUAGAUUCCUCGACAUGAGGAUCACCCAUGUAAGAUUGGGCCUAGAACUAGAAGGCGUGGCUU [Eternabot (L1) Solution 77] (Eterna round: R97, puzzle: Exclusion 5)				72.1 nM	128 nM	
GGUCAAGAACAGAUCCGCGCUGCCAUUGACCGCUCAUUUACAUGAGGAUCACCCAUGUUUUUUGCUCGUCUUACUAC [Edesso] (puzzle: Sensor v3, turn-off variant 2)	20.8 nM	61.4 nM	19.3 nM			
GGUCAAGAACAGAUCCGCGCUGCCCUCGACCGCUCAUUUACAUGAGGAUCACCCAUGUUUUUUGCUUGUCUUGUUAC [Vezageis] (puzzle: Sensor v3, turn-off variant 2)	17.2 nM	57 nM	17.1 nM			
